Four molecules from patent publication US8597922B2, “Methods and compositions for producing olefins” (LS9, Inc., priority 2007, dated 2013) can be followed below.

Series [1] can be described thus: In vitro α-olefin synthesis by purified His-tagged protein with hydrogen peroxide. Type of series: biochemical. To be noted: 200 μL purified protein, 200 μM hydrogen peroxide, 200 μM potassium hexadecanoate, room temperature overnight. The method, then: E. coli C41 DE3 (ΔfadE) cells were transformed with pET15b-orfKRH21570 using routine transformation techniques. Protein expression was carried out by first inoculating 5 mL of LB broth supplemented with 100 mg/L carbenicillin with a colony of the E. coli strain which was followed by shaking the cells overnight at 37° C. to produce a starter culture. This starter culture was used to inoculate 0.5 L of LB media supplemented with 100 mg/L of carbenicillin. The culture was shaken at 37° C. until an OD600 value of 0.6 was reached, after which it was induced with 1 mM IPTG and 0.5 mM delta-aminolaevulinic acid. The culture was then shaken at 25° C. for approximately 18 h. The protein was purified as described in Example 12.
To assay the activity of ORF_KRH21570, 200 μL of purified protein was incubated with 200 μM of hydrogen peroxide and 200 μM of potassium hexadecanoate. As a negative control, the same reaction was conducted, but without the addition of either purified protein (100 mM sodium phosphate pH 7.2 was used in its place) or free fatty acid. The reactions were performed in duplicates and incubated at room temperature overnight. […] Trimethylanilinium hydroxide was added to the ethyl acetate layer at a 1:1 ratio and the extracts analyzed by GC/MS using the MAR_splitless_short method. […]

Series [2] in a line: Specific activity of α-olefin and α/β-hydroxy fatty acid formation by purified enzymes. To be noted: for specific activity for 1-pentadecene formation: 500 μM H2O2, 200 μM potassium hexadecanoate, pH 7.2, room temperature, comparison between enzymes. Type of series: biochemical. The method, then:
The specific activity of α-olefin formation as well as α-(2) and β-(3)hydroxy fatty acid formation were determined for ORF880, CYP152A1, and CYP152A1 Q85H (see Examples 12 and 16). An E. coli BL21 strain (DE3) (Invitrogen) was transformed with either pET15b-orf 880, pET15b-cyp152A1, and pET15b-cyp152A1 Q85H using routine chemical transformation techniques. Protein expression was carried out by first inoculating a colony of the E. coli strain in 5 mL of LB media supplemented with 100 mg/L of carbenicillin and shaken overnight at 37° C. to produce a starter culture. This starter culture was used to inoculate 0.5 L of LB media supplemented with 100 mg/L of carbenicillin. The culture was shaken at 37° C. until an OD600 value of 0.6 was reached. The culture was placed on ice for 10 min before IPTG was added to a final concentration of 250 μM. The culture was shaken at 25° C. for approximately 18 h, and then centrifuged at 3,700 rpm for 20 min at 4° C. The pellet was then resuspended in 10 mL of buffer containing 100 mM sodium phosphate buffer at pH 7.2 supplemented with Bacterial ProteaseArrest (GBiosciences). The cells were then sonicated at 12 W on ice for 9 sec with 1.5 sec of sonication followed by 1.5 sec of rest. This procedure was repeated 5 times with one min intervals between each sonication cycle. The cell free extract was centrifuged at 10,000 rpm for 30 min at 4° C. 5 mL of Ni-NTA (Qiagen) was added to the supernatant, and the mixture was gently stirred at 4° C. The slurry was passed over a column removing the resin from the lysate. The resin was then washed with 30 mL of buffer containing 100 mM sodium phosphate buffer at pH 7.2 plus 30 mM imidazole. Finally, the protein was eluted with 15 mL of 100 mM sodium phosphate buffer at pH 7.2 plus 250 mM imidazole. The protein solution was dialyzed with 200 volumes of 100 mM sodium phosphate buffer at pH 7.2 with 20% glycerol. Protein concentration was determined using the Bradford assay (Biorad). 578 μg/mL of ORF880, 865 μg/mL of CYP152A1, and 653 μg/mL of CYP152A1 Q85H protein was obtained.
To determine the specific activity with potassium hexadecanoate, the following reactions were set-up where each time point consisted of 500 μL. Each reaction contained of 500 μM H2O2, 200 μM of potassium hexadecanoate, 100 mM sodium phosphate buffer at pH 7.2, and protein at the following concentrations: ORF880-0.23 or 0.46 μM; CYP152A1-8.65, 17.3, or 34.6 μM; CYP152A1 Q85H-6.53, 13.06, or 26.12 μM. The reactions were carried out at room temperature and time points were taken at 0, 1, 3, 5, 7, 10, 14, and 20 minutes. Reactions were quenched with 50 μL of 12 M HCl and then extracted with 200 μL of ethyl acetate. 50 μL of this extract was then reacted with 50 μL N,O-Bis(trimethylsilyl)trifluoroacetamide with trimethyl-chlorosilane (Aldrich). Samples were analyzed using GC/MS using the following parameters: run time: 20 min; column: HP-5-MS Part No. 190915-433E (length of 30 meters; I.D.: 0.25 mm narrowbore; film: 0.25 μM); inject: 1 μL Agilent 6850 inlet; inlet: 300° C. splitless; carrier gas: helium; flow: 1.3 mL/min; oven temp: 100° C. hold 5 min, 320° C. at 20° C./min, 320° C. hold 5 min; det: Agilent 5975B VL MSD; det. temp: 300° C.; scan: 50-500 M/Z. Calibration curves were generated using 1-pentadecene, α(2)-hydroxyhexadecanoic acid, and β(3)-hydroxyhexadecanoic acid dissolved in ethyl acetate and derivatized as described herein.
Based upon this analysis, product formation was determined to be linear within the first three minutes. The specific activities for each enzyme concentration in the linear range were averaged for a given reaction (e.g., decarboxylation, α-hydroxylation, or β-hydroxylation). FIG. 21 summarizes the results. The specific activity for 1-pentadecene formation was similar for ORF880 and CYP152A1. Mutating the glutamine 85 residue to a histidine increased the specific activity of 1-pentadecene formation (i.e., increased fatty acid decarboxylase activity). […]

Series [3] deals with E. coli C41 ΔfadE. Type of series: cell-based. The method, then: Genomic DNA encoding C. efficiens YS-134 (DSMZ44549) orfCE2459 (SEQ ID NO:6) was cloned into the NcoI and EcoRI sites of vector OP-80 (pCL1920 derivative) under the control of the Ptrc promoter. The resulting construct was then transformed into E. coli C41 ΔfadE.
The cells were grown at 37° C. in M9 minimal media supplemented with 20 μg/mL uracil, 1% glucose (w/v), and 100 μg/mL spectinomycin. When the culture reached an OD600 of 0.8 to 1.0, it was induced with 1 mM IPTG supplemented with 0.5 mM delta-aminolaevulinic acid (heme biosynthesis precursor), and 0.05% stearic acid (as a substrate for orfCE2459). The temperature was shifted to 25° C. and cells were allowed to grow for an additional 18-20 h Cells from 1 mL of culture were resuspended with 100 μL of methanol, sonicated for 30 min, and extracted with 300 μL of ethyl acetate. After vortexing for 15 min, 300 μL of water was added, and the mixture was vortexed for another 15 min before centrifugation at 15,000 rpm for 10 min. The solvent layer was analyzed by GC-MS.
Genomic DNA encoding Kokuria rhizophila DC2201 orfKRH21570 (SEQ ID NO:8), which was codon optimized (SEQ ID NO:9) for expression in E. coli, was cloned into the NdeI and XhoI sites of vector OP-183 (pACYC177 derivative) under the control of the Ptrc promoter. The resulting construct was then transformed into E. coli C41 ΔfadE. The cells were grown, extracted, and analyzed as in described in Example 7.
The genomic DNA encoding Bacillus subtilis fatty acid hydroxylase, Cyp152A1 (SEQ ID NO:13) or P450Bsβ, was cloned into the NdeI and XhoI sites of vector OP-183 (pACYC177 derivative) under the control of the Ptrc promoter. The construct was used as a template to introduce a mutation at position 85 changing the Glu to His using the following primer: GTTAATGCGATTCAcGGAATGGATGGC. The resulting constructs were then transformed into E. coli C41 (ΔfadE). The cells were grown at 37° C. in M9 minimal media supplemented with 20 μg/mL uracil, 1% glucose (w/v), and 100 μg/mL carbenicillin. When the culture reached OD600 of 0.8-1.0, it was induced with 1 mM IPTG; supplemented with 0.5 mM delta-aminolaevulinic acid (heme biosynthesis precursor) and 0.05% stearic acid (as a substrate for Bsb). The temperature was shifted down to 25° C. and cells were allowed to grow for an additional 18-20 h. Cells from 1 mL of culture was resuspended with 100 μL of methanol, sonicated for 30 min, and extracted with 300 μL of ethyl acetate. After vortexing the extract for 15 min, 300 μL of water was added, vortexed for another 15 minutes before centrifugation at 15,000 rpm for 10 minutes. The solvent layer was analyzed by GC-MS.

Setting [4] is: with 0.05% stearic acid feeding.
Where [5] appears, read: compared with the wild-type version of CYP152A1.

Residue numbers refer to the chain shown, from its start. In names and notes the source's numbering stands. Read-outs that look alike come from different tables or passages of the source.

B1: orf_Mpop1292: ORF880 homolog P450 enzyme from Methylobacterium populi, ZP_02200540 (protein, listed as Methylobacterium populi)
chain: MPAAIATHRFRKARTLPREPAPDSTLALLREGYGFIRNRCRRHDSDLFAARLLLSPVICMSGAEAARHFYDGHRFTRRHALPPTSFALIQDHGSVMVLDGAAHLARKAMFLSLVGEEALQRLAGLAERHWREAVSGWARKDTVVLLDEAHRVLTAAVCEWVGLPLGPTEVDARAREFAAMIDGTGAVGPRNWRGHLYRARTERWVRKVIDEIRSGRRDVPPGAARTIAEHQDADGQRLDRTVAGVELINVLRPTVANARYIVFAAMALHDHPHQRAALADGGEAAERFTDEVRRFYPFIPFIGGRVRAPFHFGGHDFREGEWVLMDLYGTNRDPRLWHEPERFDPDRFARETIDPFNMVSHGAGSARDGHRCPGEGITRILLRTLSRQLAATRYTVPPQDLTLDLAHVPARPRSGFVMRAVHAP
As for B1, the “α-olefin formed from hexadecanoic acid” value in series [1] is 1-pentadecene.

B2: CYP152A1: Bacillus subtilis fatty acid hydroxylase, NP_388092 (protein, listed as Bacillus subtilis)
chain: MNEQIPHDKSLDNSLTLLKEGYLFIKNRTERYNSDLFQARLLGKNFICMTGAEAAKVFYDTDRFQRQNALPKRVQKSLFGVNAIQGMDGSAHIHRKMLFLSLMTPPHQKRLAELMTEEWKAAVTRWEKADEVVLFEEAKEILCRVACYWAGVPLKETEVKERADDFIDMVDAFGAVGPRHWKGRRARPRAEEWIEVMIEDARAGLLKTTSGTALHEMAFHTQEDGSQLDSRMAAIELINVLRPIVAISYFLVFSALALHEHPKYKEWLRSGNSREREMFVQEVRRYYPFGPFLGALVKKDFVWNNCEFKKGTSVLLDLYGTNHDPRLWDHPDEFRPERFAEREENLFDMIPQGGGHAEKGHRCPGEGITIEVMKASLDFLVHQIEYDVPEQSLHYSLARMPSLPESGFVMSGIRRKS
B2: the “specific activity for 1-pentadecene formation” value in series [2] was “similar”. Besides, in series [3] (setting [4]), the α-olefin produced is 1-heptadecene.

B3: CYP152A1 Q85H (protein, UniProt O31440 1-417, looked up, variant Q85H)
Fatty-acid peroxygenase: B2 chain with Q85H
With B3, the “specific activity for 1-pentadecene formation” value in series [2] is listed as “increased”. In series [2] (setting [5]), the “rate of α-hydroxyhexadecanoic acid formation” value is “lowered” and the “rate of β-hydroxyhexadecanoic acid formation” value is “increased”. Further, in series [3] (setting [4]), the α-olefin produced entry is on record as “capable of carrying out this reaction”.

B4: orf_KRH21570: ORF880 homolog P450 enzyme from Kokuria rhizophila DC2201, YP_001856010 (protein, listed as Kokuria rhizophila)
chain: MTSPFGQTRSEQGPSLLRSGYLFASRARRRAGLSSDSGCPVRMPLLGKQTVLVRGEEGVKLFYDTSRVRRDGAMPGVVQGPLFGAGAVHGLDGEAHRVRKNQLADMAYEDERVAAYKPFVAEELENLVARWKDGDNVYDSTAIAFGRASFRWAGLQWGVPEMDRWARRMSRLLDTFGRPATHLVSRLDRIALDRRFAALIKDVRAGKVNAPEDSVLAHMAALVDEHGELVDAKTAGIELQNLTRPNVAVARFAAFAATALVEHPEWVERIRAASEQRGGTLLDVPEAVAFAQEVRRVYPFVPMLPAEVTQDTEIQGCPVHKGERVVLDILGTNTDPTSWDRAATFDPERFLGVEDAEAITTFIPQGGAEVRTGHRCPGEKIAVTSLSAAVVALCRPEVQLPGDQDDLTFSWTHMLTRPVTGVRVRTTR
B4: the α-olefin produced in series [3] (setting [4]) was 1-heptadecene; in series [3] (without stearic acid feeding, grown on glucose), 1-heptadecadiene. In addition, in series [1], the “α-olefin formed from hexadecanoic acid” value is on record as 1-pentadecene.
